From patent publication US11584938B2, “Plant EPSPS mutant containing L195P and S247G mutations and encoding gene and use thereof” (GEVOTO LLC, priority 2017, dated 2023)

B1: T0: wild-type wheat EPSPS, amino acid sequence SEQ ID NO: 14; control (protein, listed as Triticum aestivum)
chain: MATSVAAPAAPAGAEEVVLQPIREISGAVQLPGSKSLSNRILLLSALSEGTTVVDNLLNSEDVHYMLEALEALGLSVEADKVAKRAVVVGCGGRFPVEKDAKEEVKLFLGNAGTAMRPLTAAVVAAGGNATYVLDGVPRMRERPIGDLVVGLQQLGADVDCFLGTNCPPVRINGKGGLPGGKVKLSGSISSQYLSSLLMAAPLALEDVEIEIIDKLISVPYVEMTLKLMEHFGVTAEHSDSWDRFYIKGGQKYKSPGNAYVEGDASSASYFLAGAAITGGTVTVEGCGTTSLQGDVKFAEVLEMMGAKVTWTDTSVTVTGPPRQPFGRKHLKAVDVNMNKMPDVAMTLAVVALFADGPTAIRDVASWRVKETERMVAIRTELTKLGATVEEGPDYCIITPPEKLNITAIDTYDDHRMAMAFSLAACAEVPVTIRDPGCTRKTFPNYFDVLSTFVKN
B2: T2: wheat EPSPS mutant, SEQ ID NO: 18, merely containing the mutation P118(101)S; control (protein)
chain: MATSVAAPAAPAGAEEVVLQPIREISGAVQLPGSKSLSNRILLLSALSEGTTVVDNLLNSEDVHYMLEALEALGLSVEADKVAKRAVVVGCGGRFPVEKDAKEEVKLFLGNAGTAMRSLTAAVVAAGGNATYVLDGVPRMRERPIGDLVVGLQQLGADVDCFLGTNCPPVRINGKGGLPGGKVKLSGSISSQYLSSLLMAAPLALEDVEIEIIDKLISVPYVEMTLKLMEHFGVTAEHSDSWDRFYIKGGQKYKSPGNAYVEGDASSASYFLAGAAITGGTVTVEGCGTTSLQGDVKFAEVLEMMGAKVTWTDTSVTVTGPPRQPFGRKHLKAVDVNMNKMPDVAMTLAVVALFADGPTAIRDVASWRVKETERMVAIRTELTKLGATVEEGPDYCIITPPEKLNITAIDTYDDHRMAMAFSLAACAEVPVTIRDPGCTRKTFPNYFDVLSTFVKN
B3: T1: wheat EPSPS mutant, SEQ ID NO: 16, mutation S269(247)G (protein)
chain: MATSVAAPAAPAGAEEVVLQPIREISGAVQLPGSKSLSNRILLLSALSEGTTVVDNLLNSEDVHYMLEALEALGLSVEADKVAKRAVVVGCGGRFPVEKDAKEEVKLFLGNAGTAMRPLTAAVVAAGGNATYVLDGVPRMRERPIGDLVVGLQQLGADVDCFLGTNCPPVRINGKGGLPGGKVKLSGSISSQYLSSLLMAAPLALEDVEIEIIDKLISVPYVEMTLKLMEHFGVTAEHSDSWDRFYIKGGQKYKSPGNAYVEGDASSAGYFLAGAAITGGTVTVEGCGTTSLQGDVKFAEVLEMMGAKVTWTDTSVTVTGPPRQPFGRKHLKAVDVNMNKMPDVAMTLAVVALFADGPTAIRDVASWRVKETERMVAIRTELTKLGATVEEGPDYCIITPPEKLNITAIDTYDDHRMAMAFSLAACAEVPVTIRDPGCTRKTFPNYFDVLSTFVKN

System: transgenic rice plants
Test: glyphosate resistance of the EPSPS mutant in transgenic rice plants sprayed with Roundup 41% ammonium glyphosate
Assay type: in vivo, rice (Nipponbare)
Text: A method for detecting the glyphosate resistance of G1 (SEQ ID NO: 4) provided in Example 1, G3 (SEQ ID NO: 8) provided in Example 2, G4 (SEQ ID NO: 10) provided in Example 3, the soybean EPSPS mutant G5 (SEQ ID NO: 12) provided in Example 4, T1 (SEQ ID NO: 16) provided in Example 5, T3 (SEQ ID NO: 20) provided in Example 6, T4 (SEQ ID NO: 22) provided in Example 7, T5 (SEQ ID NO: 24) provided in Example 8, the wheat EPSPS mutant T6 (SEQ ID NO: 26) provided in Example 9, R1 (SEQ ID NO: 30) provided in Example 10, R3 (SEQ ID NO: 34) provided in Example 11, R4 (SEQ ID NO: 36) provided in Example 12, R5 (SEQ ID NO: 38) provided in Example 13, and the rice EPSPS mutant R6 (SEQ ID NO: 40) provided in Example 14 in the transgenic rice is as follows:
The plasmids (containing the EPSPS mutation gene) of the monoclonal resistant bacteria of pADV5-EPSPS in Examples 1-7 were extracted by a conventional method, followed by double enzyme digestion by Pac1 and BstEII, the small fragments were collected, and then the small fragments were ligated by using T4 DNA ligase, to the pGVP1 vectors that had undergone the same double enzyme digestion, to obtain a pGVP1-EPSPS vector having a structure as shown in FIG. 23.
EHA105 (Agrobacterium tumefaciens) competent cells were transformed by the pGVP1-EPSPS vector, and single colonies were picked up to perform bacterial colony PCR detection to identify positive strains; then the positive strains were inoculated into 1 mL of YEP culture medium containing 50 μg·mL^−1 kanamycin and 50 μg·mL^−1 rifampin to propagate, and then preserved at −80° C., or used for subsequent experiment.
400 μl of bacterium containing the target gene vector preserved at −80° C. was added to a culture dish of solid culture media containing YEP+50 μg/mL rifampin+50 μg/mL kanamycin, and cultured in the dark at 28° C. for 24 hours, then this bacterium was added to an infection culture medium, and this bacterial solution was adjusted to OD=0.2 as an infection liquid.
Sterilization and pre-culturing: mature rice (Nipponbare) seeds were manually shelled, and full seeds without bacterial plaque were selected, and sterilized according to following steps: putting the seeds into a 50 ml sterile centrifuge tube, adding 70% alcohol for disinfection for 30 seconds, pouring out the alcohol, and cleaning the seeds once with sterile water; adding 10-20 ml of 2.6% sodium hypochlorite solution for soaking and sterilizing for 20 minutes, pouring out the sodium hypochlorite solution, and soaking and cleaning the seeds with sterile water for 6-7 times, 3 minutes each time.
Induction and subculturing: the seeds were put on sterile filter paper for drying, and mature embryos were put in an induction culture medium with 12 embryos in each dish; the culture dishes were sealed with a sealing film after the operation was finished, the mature embryos were cultured in the dark at 30° C. for 21-28 days, calluses were transferred into a fresh culture medium, and continuously cultured for about 7-14 days, and spherical calluses with a size of 1-2 mm were taken as infection receptors.
the calluses were inoculated into a centrifuge tube or a culture cup, the prepared Agrobacterium tumefaciens suspension liquid was added for infection for 10 minutes, wherein the calluses were shaken several times; the bacterial solution was poured out, the calluses were taken out, and placed on sterile filter paper to suck out the surface bacterial solution (about 30 minutes); and the calluses were put on sterile filter paper in a culture dish, and cultured in the dark at 25° C. for 2-3 days.
Recovery culturing: the calluses having undergone co-culturing were inoculated in a recovery culture medium, and cultured in the dark at 30° C. for 5-7 days. First round of screening: the calluses were transferred to screening culture media 1 (S1) and cultured in the dark at 30° C. for 14 days. […]

[1] = 1× dosage 1060 g/hectare glyphosate sprayed, recorded on 10th day
[2] = 2× dosage 2120 g/hectare sprayed to plants surviving 1×, recorded 10 days later
[3] = 5× dosage 5300 g/hectare sprayed to plants surviving 2×, recorded 10 days later
[4] = 20× dosage 21200 g/hectare sprayed to plants surviving 5×, recorded 10 days later

Row | Molecule | %++&+++ (percentage of plant having medium and high glyphosate resistance to the total number of plants observed) [1] | number of plants denoted by + (low glyphosate resistance) [1] | number of plants denoted by ++ (medium glyphosate resistance) [1] | number of plants denoted by +++ (high glyphosate resistance) [1] | number of plants denoted by − (no glyphosate resistance) [1] | glyphosate resistance / survival of the rice transformed by the EPSPS, in words (1× glyphosate dosage) | %++&+++ (percentage of plant having medium and high glyphosate resistance to the total number of plants observed) [2] | number of plants denoted by + (low glyphosate resistance) [2] | number of plants denoted by ++ (medium glyphosate resistance) [2] | number of plants denoted by +++ (high glyphosate resistance) [2] | number of plants denoted by − (no glyphosate resistance) [2] | &++&+++ (percentage of plant having medium and high glyphosate resistance to the total number of plants observed) [3] | number of plants denoted by + (low glyphosate resistance) [3] | number of plants denoted by ++ (medium glyphosate resistance) [3] | number of plants denoted by +++ (high glyphosate resistance) [3] | number of plants denoted by − (no glyphosate resistance) [3] | &++&+++ (percentage of plant having medium and high glyphosate resistance to the total number of plants observed) [4] | number of plants denoted by + (low glyphosate resistance) [4] | number of plants denoted by ++ (medium glyphosate resistance) [4] | number of plants denoted by +++ (high glyphosate resistance) [4] | further results
1 | B1 | 0.0% | 1 | 0 | 0 | 32 | had no resistance, one was seriously damaged, and all the others died | 0.0% | 0 | 0 | 0 | 33 | 0.0% | 0 | 0 | 0 | 33 | 0.0% | 0 | 0 | 0 | number of plants denoted by − (no glyphosate resistance) [4]: 33
2 | B2 | 52.8% | 13 | 15 | 13 | 12 | had relatively high resistance to glyphosate | 7.5% | 26 | 3 | 1 | 23 | 0.0% | 21 | 0 | 0 | 32 | 0.0% | 11 | 0 | 0 | glyphosate resistance / survival of the rice transformed by the EPSPS, in words (5× glyphosate dosage): none of the rice seedlings containing the wheat EPSPS mutant T2 achieved the level of medium glyphosate resistance; number of plants denoted by − (no glyphosate resistance) [4]: 42; glyphosate resistance / survival of the rice transformed by the EPSPS, in words (20× glyphosate dosage): none of the rice seedlings containing the wheat EPSPS mutant T2 achieved the level of medium glyphosate resistance
3 | B3 | 27.0% | 28 | 15 | 2 | 18 | obviously superior to that of the rice seedlings transformed by T0 | 1.6% | 32 | 1 | 0 | 30 | 0.0% | 2 | 0 | 0 | 61 | 0.0% | 0 | 0 | 0 | glyphosate resistance / survival of the rice transformed by the EPSPS, in words (2× glyphosate dosage): some of the transgenic rice seedlings transformed by T4, T1 and T5 still survived; glyphosate resistance / survival of the rice transformed by the EPSPS, in words (5× glyphosate dosage): some of the transgenic rice seedlings transformed by T4, T1 and T5 still survived; number of plants denoted by − (no glyphosate resistance) [4]: 63
